According to patent US20140120109A1 (Regeneron, published 2014):

T1: cynomolgus monkey TL1A, soluble, CHO-expressed, residues 72-251 of SEQ ID NO:248 with N-terminal His6-tag (cynomolgus monkey (Macaca fascicularis), UniProt O95150 72-251 (human entry))
T1 chain: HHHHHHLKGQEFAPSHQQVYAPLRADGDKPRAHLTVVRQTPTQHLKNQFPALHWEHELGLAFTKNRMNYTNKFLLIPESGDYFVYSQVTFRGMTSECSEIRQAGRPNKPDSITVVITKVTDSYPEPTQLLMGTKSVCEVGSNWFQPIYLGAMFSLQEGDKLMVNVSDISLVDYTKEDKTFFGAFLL

T2: human TL1A, soluble, E. coli-expressed, residues 72-251 of SEQ ID NO:244 (human, UniProt O95150 72-251)
T2 sequence: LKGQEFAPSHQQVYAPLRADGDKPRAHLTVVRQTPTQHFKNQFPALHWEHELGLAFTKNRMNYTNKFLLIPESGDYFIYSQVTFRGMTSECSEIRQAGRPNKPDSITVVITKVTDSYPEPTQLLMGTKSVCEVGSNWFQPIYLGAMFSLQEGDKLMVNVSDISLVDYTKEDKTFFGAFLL

T3: Fhm, hTL1A(Q167R), soluble, CHO-expressed, residues 72-251 of SEQ ID NO:246 (human, UniProt O95150 72-251)
T3 construct: also called Fhm (CHO); FHM (CHO)
T3 chain: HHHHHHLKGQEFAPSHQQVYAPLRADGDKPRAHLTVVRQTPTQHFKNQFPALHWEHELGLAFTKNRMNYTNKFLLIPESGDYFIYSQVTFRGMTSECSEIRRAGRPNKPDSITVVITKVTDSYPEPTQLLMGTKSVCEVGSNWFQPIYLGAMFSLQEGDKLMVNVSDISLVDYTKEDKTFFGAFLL

T4: full-length Fhm, human TL1A(Q167R), expressed on HEK293 cells (human, UniProt O95150 1-251)
T4 sequence: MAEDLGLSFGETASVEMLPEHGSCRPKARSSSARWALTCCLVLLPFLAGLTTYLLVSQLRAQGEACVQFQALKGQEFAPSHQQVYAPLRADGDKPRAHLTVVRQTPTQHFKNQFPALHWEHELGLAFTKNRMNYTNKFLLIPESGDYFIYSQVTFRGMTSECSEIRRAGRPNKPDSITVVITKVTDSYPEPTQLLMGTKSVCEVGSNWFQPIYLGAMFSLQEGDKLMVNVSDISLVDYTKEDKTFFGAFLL

T5: full-length cynomolgus monkey TL1A expressed on HEK293 cells (cynomolgus monkey (Macaca fascicularis), UniProt O95150 1-251 (human entry))
T5 chain: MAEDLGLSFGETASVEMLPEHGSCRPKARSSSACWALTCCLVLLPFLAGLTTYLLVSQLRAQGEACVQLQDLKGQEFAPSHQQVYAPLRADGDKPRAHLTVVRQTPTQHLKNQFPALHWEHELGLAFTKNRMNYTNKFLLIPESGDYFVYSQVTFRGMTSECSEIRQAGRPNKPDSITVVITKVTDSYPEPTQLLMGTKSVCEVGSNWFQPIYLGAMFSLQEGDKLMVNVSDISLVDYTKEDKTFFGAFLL

T6: full length human TL1A expressed on HEK293 cells (human, UniProt O95150 1-251)
T6 sequence: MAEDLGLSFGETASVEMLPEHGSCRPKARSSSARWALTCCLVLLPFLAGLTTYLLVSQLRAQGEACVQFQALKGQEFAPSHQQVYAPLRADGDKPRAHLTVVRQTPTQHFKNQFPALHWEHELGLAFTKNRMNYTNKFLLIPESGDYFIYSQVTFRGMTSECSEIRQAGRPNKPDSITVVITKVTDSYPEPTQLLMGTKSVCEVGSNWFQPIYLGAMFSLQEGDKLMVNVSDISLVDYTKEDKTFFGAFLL


Columns and labels:
[1] = target: T1, cynomolgus monkey TL1A, soluble, …; assay: cell-based or functional assay
[2] = target: T2, human TL1A, soluble, E. coli-expressed, …; assay: cell-based or functional assay
[3] = target: T3, Fhm, hTL1A(Q167R), soluble, …; assay: ELISA, blocks FHM (150 pM) binding hDR3-Fc
Method: The ability of antibodies to block human TL1A binding to its cognate receptors, the DR3 and DcR3 receptors, was measured using a competition sandwich ELISA. In addition, blocking of a human TL1A variant FHM (human TL1A Q167R) and the cynomolgus monkey (Macaca fascicularis) TL1A (MfTL1A) protein binding to the human DR3 or DcR3 receptors was measured in the same manner. Constant amounts of biotinylated human TL1A or FHM (both expressed with a 6-His tag in CHO cells) or biotinylated MfTL1A (expressed in CHO cells) were separately titrated with varying amounts of antibodies. The antibody-protein complexes were incubated in solution (1 hr, 25° C.) and then transferred to microtiter plates coated with human DR3 (hDR3) or human DcR3 (hDcR3) expressed as human IgG1 Fc fusion proteins. After one hour at 25° C. the wells were washed, and bound human or monkey TL1A was detected with streptavidin conjugated with horseradish peroxidase (HRP). Wells were developed with a TMB solution to produce a colorimetric reaction and quenched with aqueous sulfuric acid before reading absorbance at 450 nm on a Perkin-Elmer Victor X5 plate reader. A sigmoidal dose-response curve was fit to the data using the Prism™ data analysis package. […] Both fully human anti-hTL1A mAbs and comparator antibodies, i.e., control mAb1 (an anti-hTL1A antibody with heavy and light chain variable domains having the amino acid sequences corresponding to SEQ ID NOS:21 and 27, respectively, of US 2009/0280116) and control mAb3 (an anti-hTL1A antibody with heavy and light chain variable domains having the amino acid sequences corresponding to SEQ ID NOS:57 and 48, respectively, of US 2009/0280116), were included in the study. NB: No binding under the conditions tested; NT: Not tested. Concentrations of biotinylated soluble ligands: (1) 150 pM; (2) 500 pM; (3) 10 pM; and (4) 50 pM.

[4] = target: T4, full-length Fhm, human TL1A(Q167R), …; assay: cell-based or functional assay
[5] = target: T5, full-length cynomolgus monkey TL1A …; assay: cell-based or functional assay
[6] = target: T6, full length human TL1A expressed on …; assay: cell-based or functional assay

Binder	IC50, NFkB-luciferase reporter [1]	IC50, NFkB-luciferase reporter [2]	IC50 [3]	IC50, reporter + 10,000 TL1A cells [4]	IC50, reporter + 10,000 TL1A cells [5]	IC50, reporter + 10,000 TL1A cells [6]
H4H1725P (antibody, human IgG4 S228P, V domains shown) VH: QVQLVQSGAEVKKPGASVKVSCKASGYTFTGYYMHWVRQAPGQGLEWMGWIKPKSGGTNYVQKFQGRVTMTRDTSINTAYMELNNLKSDDTAVYYCATGGSQDASDFWGQGTMVTVSS VL: DIQMTQSPSSVSASVGGRVTITCRASQDISIWLAWYQQKPGKAPNLLIYAASSLQSGVPSRFSGSGSGTDFTLTISSLQPEDFATYYCQQADSFPLTFGGGTKVEIK	10 pM	20 pM	18 pM	940 pM	2820 pM	660 pM
H4H1681N (antibody, human IgG4 S228P, V domains shown) VH: EVQLLESGGGLVQPGKSLRLSCAVSGFTFSTYGMNWVRQAPGKGLEWVSSISGTGRTTYHADSVQGRFTVSRDNSKNILYLQMNSLRADDTAVYFCTKERGDYYYGVFDYWGQGTLVTVSS VL: DIQMTQSPSTLSASVGDRVTITCRASQTISSWLAWYQQTPEKAPKLLIYAASNLQSGVPSRFSGSGSGTEFTLTISSLQPDDFATYYCQQYHRSWTFGQGTKVEIT	30 pM	20 pM			3070 pM	660 pM
H4H1805N (antibody, human IgG4 S228P, V domains shown, human IgG4(S108P) form of H2M1805N) VH: QVQLQQWGAGLLKPSETLSLTCAVYGGSFTGFYWSWIRQPPGKGLEWIGEINHRGNTNYNPSLKSRVTMSVDTSKNQFSLNMISVTAADTAMYFCASPFYDFWSGSDYWGQGTLVTVSS VL: DIMLTQTPLTSPVTLGQPASISCKSSQSLVHSDGNTYLSWLQQRPGQPPRLLFYKISNRFSGVPDRFSGSGAGTDFTLKISRVEAEDVGVYYCMQATQFPLTFGGGTKVEIK	30 pM	40 pM		54100 pM	1930 pM	820 pM
H4H1752P (antibody, human IgG4 S228P, V domains shown) VH: EVQLVESGGGLVQPGGSLRLSCSASGFTFSKYVMTWVRQAPGKGLEWVSAIGPTGRTTEYADSVQGRFTISRDNSMNTVFLHLNSLTAEDTAEYYCAKMFDWNYDVYFDSWGQGTLVTVSS VL: DIQMTQSPSILSASVGDRVTITCRTSQSISNWLAWYQQKPGKAPNLLIYKASSLESGVPSRFSGSGSGTEFTLTISSLQPDDFATYYCQQYYRYWTFGQGTKVEIK	120 pM	210 pM		138000 pM	11700 pM	1990 pM
H4H1719P (antibody, human IgG4 S228P, V domains shown) VH: EVQLVESGGGLVQPGRSLRLSCVASGFTFQDYAMHWVRQAPGKGLEWVSGINWISDDMGYADSVMGRFTISRDNAKNSLYLQMDSLRAEDTALYYCAKDKGLRFLDYVMDVWGQGTTVTVSA VL: DIVMTQSPLSLPVTPGEPASISCRSTQSLLHRNGHNYLHWYLHKPGQSPQLLIHLGSNRASGVPDRFSGSGSGTDFTLKISRVEAEDVGVYYCMQALQTPYTFGQGTKLEIK	10 pM	20 pM	23 pM	840 pM	3000 pM	820 pM
H4H1738P (antibody, human IgG4 S228P, V domains shown) VH: EVQLVESGGALVKPGGSLRLSCAVSGFTFINDWMNWVRQAPGKGLEWVGRIKSTTDGGTTDDAAPVKGRFTISRDDSKNTLYLQMNSLKTEDTAVYYCTRDRNRQRNYFYDGMDVWGQGTTVTVSA VL: DIVMTQSPVSLPVTPGEPASISCRSSQRLLHNNGNNYLDWYLQKPGQSPQLLIYLGSNRASGVPDRFSGSGSGTDFTLKVSRVEAEDVGVYYCMQALQTPYTFGQGTKLEIK	390 pM	160 pM	152 pM	7750 pM	20200 pM	7470 pM
H4H1804N (antibody, human IgG4 S228P, V domains shown, human IgG4(S108P) form of H2M1804N) VH: QVQLHQWGAGLLKPSETLSLTCAVSGVSFSDYHWAWIRQSPGKGLEWIGDINHRGRTNYNPSLKSRVTISLDTSGNPFSLKLTSVTAADTAVYYCARDFPNWVFDSWGQGILVTVSS VL: EIVLSQSPGTLSLSPGERATLSCRASQSVSSSFLAWYQQYPGQAPRLLIYGASRRATGIPDRFRGSGSGTDFTLTISRLEPEDFAVYYCQQYGSSPLTFGGGTKVENK	30 pM	30 pM		1230 pM	2230 pM	560 pM
H4H1704N (antibody, human IgG4 S228P, V domains shown, human IgG4(S108P) form of H2M1704N) VH: EVQLVESGGGLVQPGGSLRLSCAVSGFTFSSYWMSWVRQAPGKGLEWVANIKEDGSEKNYVDSVKGRFTLSSDNAKNSLYLQMNSLRAEDTAVYYCAREDYDSYYKYGMDVWGQGTAVIVSS VL: not shown	10 pM	60 pM	44 pM	1580 pM	3760 pM	1110 pM
H4H1818N (antibody, human IgG4 S228P, V domains shown, human IgG4(S108P) form of H2M1818N) VH: RLQLVESGGGLVKPGGSLKLSCAASGFTISDYYMSWIRQAPGKGLEWVSYIGGSGSTIYYADSVKGRFTISRDNAKNSLYLQMNSLRAEDTAVYYCAREDADSYYYYGMDVWGQGTTVTVSS VL: not shown	130 pM	290 pM	202 pM	1420 pM	4290 pM	1540 pM
H4H1817N (antibody, human IgG4 S228P, V domains shown, human IgG4(S108P) form of H2M1817N) VH: QVQLQQWGAGLLKPSETLSLTCAVSGGSFSDYFWTWIRQPPGKGLEWIGEISHSGRTNYNPSLKSRVTISVDTSMSQFSLKMTSVTAADSAVYYCARDYPNWVFDYWGQGTLVTVSS VL: EIELTQSPGTLSLSPGEGATLSCRASQSVFNSYLAWYQQKPGQAPRLLIYGASRRATGIPDRFSGSGSGTDFTLTISRLEPGDFAVYFCQQYGNSPLTFGGGTKVEIK	40 pM	40 pM	235 pM	620 pM	5040 pM	1110 pM
